PMC10771423, “Discovery and biochemical characterization of thermostable glycerol oxidases” (Applied Microbiology and Biotechnology, 2024)

B1: AldOTf (Thermopolyspora flexuosa) (protein)
chain: MRSTNWAGNVVFRASELHRPASIDELRRVVARSPKVRVLGSGHSFNEITDTDGTLVSLDALPPEVEIDGATGTARISAGLRYGELSRRLHAAGHALANLASLPHICVAGACATGTHGSGDGNGGLATSVTAVELVTGEGDLVTLSRDADPDRFPGAVVSLGALGVVVAMTLRLVPAFEVRQRVYENLPAEALAGHFDEIMASGYSVSLFTDWRGDRISQVWVKERVDASSGAPGDEREPVVAALGATPADGPRHPVPGMPAVNCTEQLGVPGPWFERLPHFRPEFTPSSGDELQAEYLLPRRHAVAAFQALAGIADRIAPVLHISEIRTVAADDLWLSPFHGRDTVAFHFTWKRDEAAVLDVLGLMEDVLAPFEPRPHWGKLFTIPPKVLHSRYDRMADFRALARELDPAGKFANAFVARHVLEIE
B2: AldOCh (Thermostaphylospora chromogena) (protein)
chain: MSPTLTNWAGNIVFRAGEVHRPETLEELRTLVTRADKVRVLGSGHSFNDIADSPGVLVSPSRLPRELELDTAAGAVRVSAGIRYAELSAWLHERGFALHNLASLPHISVAGSCATATHGSGDGNGNLATAVRALTLVTAEGDLVDLDRERDGDRFRGAVVGLGALGVVVSMTLDVEPTFEVRQRVYEDLPLEAACDHFSDIMGCAYSVSMFSDWTSSRINQVWVKERVDEDGSRPPGPASFGAKPADGPRHPIARMPAGNCTEQLGVPGPWFARLPHFRPEFTPSGGQERQAEYLVPRRHAVAALRELAAIGDRIAPVLQISEIRTIAADDLWLSPCQGRDTVGFHFTLIPDTAAVLPVLELIEERLAPFEARPHWGKLFTTPPAVLRSRYDRLPDFQALARDLDPGGKFANEFISRNLLDA
B3: AldOAb (Actinomycetota bacterium) (protein)
chain: MTMRSTNWAGNVVYRASELHRPASLDELRRVVARSPKVRVLGSGHSFNEITDTEGALVSLEALPPEVEIDRATGTARVAAGLRYGELSARLHAAGYALPNLASLPHICVAGACATGTHGSGDGIGGLAGSVTAVELVTADGDLVTLSRDADPDRFPGAVVSLGALGAVVTMTLRLEPAFQVRQRVYENLPAEALDDHFDEIMASGYSVSLFTDWRGDRIRQVWVKERVGDPAAGGEEREPVVAALGATPADGPRHPVPGMPAANCTEQLGVPGPWHERLPHFRLGFTPSSGDELQAEYLLPRRHAVAAFHALAGIADRIAPVLHISEIRTVAADDLWLSPFHGRNTVAFHFTWKPDEAAVREVLSLMEEVLAPFEPRPHWGKLFAIPPKVLRSRYDRIGDFRALARELDPSGKFANAFVAHHVLDDE

What was measured:
purified protein [1] = substrate: OC[C@@H](O)[C@H](O)[C@@H](O)CO; test: purified protein; conditions: 50 mM KPi pH 7.5, 25 °C, O2 as co-substrate
purified protein [2] = substrate: OCC(O)CO; test: purified protein; conditions: 50 mM KPi pH 7.5, 25 °C, O2 as co-substrate

| Protein | Km (purified protein [1]) | kcat (purified protein [1]) | kcat/Km (purified protein [1]) | Km (purified protein [2]) | kcat (purified protein [2]) | kcat/Km (purified protein [2]) |
| --- | --- | --- | --- | --- | --- | --- |
| B1 | 30 µM | 3.1 s⁻¹ | 100000 M⁻¹ s⁻¹ | 50000 µM | 1.6 s⁻¹ | 32 M⁻¹ s⁻¹ |
| B2 | 40 µM | 3.5 s⁻¹ | 120000 M⁻¹ s⁻¹ | – | – | – |
| B3 | 30 µM | 4.2 s⁻¹ | 140000 M⁻¹ s⁻¹ | – | – | – |
